These results are taken from publication PMC5528877.

The nature of series [1]: western blot of total lysate, COS-7. The note with it: glycan lost; control: WT Vstm5.
The nature of series [2]: immunofluorescence with ER marker PDI, COS-7. The note with it: glycan lost.
Series [3] in a line: surface biotinylation, pull-down, western, COS-7. The note with it: glycan lost; control: WT Vstm5.

B1: V-set and transmembrane domain-containing protein 5 (Vstm5): N43,87,101,108A (protein)
parent chain: MRPLRCGERTQGIPLGLLAFWVTAARCLQSQGVSLYIPQSAINATVQQDILLSVDYICHGVPTIEWKYTPNWGVQRIVEWKPGTPANVSQSHRDRVCTFDNGSIQLFNVSVKDSGYYIVTVTEHPGSSQSGTILLRVSEIRYEDLHFVAVFFALLAAVAVVLISLMWVCNQCAYKFQRKRRYKLKESTTEEIEMKEVEC
Take B1: the expression_or_secretion entry in series [1] was “no change”. Also, in series [2] (control: WT Vstm5), the localisation_or_trafficking entry was “changes”. Moreover, the “localisation_or_trafficking, fold_change” value in series [3] is listed as “decreases”.

B2: V-set and transmembrane domain-containing protein 5 (Vstm5): N43A (protein)
parent chain: B1 parent chain
Regarding B2, the expression_or_secretion result in series [1] is listed as “no change”. The “localisation_or_trafficking, fold_change” value in series [3] was “decreases”.

B3: V-set and transmembrane domain-containing protein 5 (Vstm5): tunicamycin (protein)
parent chain: B1 parent chain
As to B3, in series [2] (control: DMSO-treated), the localisation_or_trafficking entry was “changes”.

B4: V-set and transmembrane domain-containing protein 5 (Vstm5): N87A (protein)
parent chain: B1 parent chain
In the case of B4, in series [1], the expression_or_secretion result is recorded as “no change”. Also, the “localisation_or_trafficking, fold_change” value in series [3] is recorded as “increases”.

B5: V-set and transmembrane domain-containing protein 5 (Vstm5): N87,101,108A (protein)
parent chain: B1 parent chain
Consider B5, for which the expression_or_secretion result in series [1] is “no change”. The “localisation_or_trafficking, fold_change” value in series [3] was “decreases”.

B6: V-set and transmembrane domain-containing protein 5 (Vstm5): N101,108A (protein)
parent chain: B1 parent chain
In the case of B6, in series [1], the expression_or_secretion result is “no change”. For the same protein, the “localisation_or_trafficking, fold_change” value in series [3] was “no change”.

B7: V-set and transmembrane domain-containing protein 5 (Vstm5): N43,87A (protein)
parent chain: B1 parent chain
B7: in series [1], the expression_or_secretion entry is given as “no change”. In series [3], the “localisation_or_trafficking, fold_change” value is “decreases”.

B8: V-set and transmembrane domain-containing protein 5 (Vstm5): N108A (protein)
parent chain: B1 parent chain
As for B8, in series [1], the expression_or_secretion entry is “no change”. In addition, in series [3], the “localisation_or_trafficking, fold_change” value is “increases”.

B9: V-set and transmembrane domain-containing protein 5 (Vstm5): N101A (protein)
parent chain: B1 parent chain
For the protein B9, the expression_or_secretion result in series [1] is on record as “no change”. Further, the “localisation_or_trafficking, fold_change” value in series [3] was “decreases”.
